# Laboratory results: patent US20090215098A1, “QUANTIFICATION OF ENZYME ACTIVITY BY MASS SPECTROMETRY” (UCL BUSINESS PLC., priority 2006, published 2009)
# Columns and labels:
# [1] = system: T1, Akt peptide substrate (SEQ ID NO: 7)
# T1 sequence: RPRAATF
# [2] = system: T2, MAP Kinase peptide substrate (SEQ ID NO: 10)
# T2 sequence: APRTPGGRR
# [3] = system: T3, PKC peptide substrate (SEQ ID NO: 12)
# T3 sequence: QKRPSQRSKYL
# [4] = system: Protein Kinase C peptide substrate (SEQ ID NO: 23)
# Akt [5] = assay: MS quantification of Akt activity in B lymphoma cell lysates treated with PI3K inhibitors; type: cell-based, mouse; conditions: B lymphoma cell line WEHI-231; varying concentrations of inhibitor; FIG. 3A
# Method: (§1) The activity of recombinant Akt/PKB was measured using the methods of the invention. Recombinant Akt/PKB was purchased from Upstate (Hampshire, UK). A 5.0 μL aliquot of […] (SEQ ID. NO: 7), 7.5 mM magnesium chloride, 0.15 mM EDTA, 7.5 mM β-glycerol phosphate, 0.1 mM sodium orthovanadate, and 0.1 mM DTT was mixed with 2.5 μL solution of Akt/PKB of various amounts: 0.004, 0.04, 0.2, 0.8, 4, 20, and 80 ng. The incubation time of each reaction was from between 2 minutes to 18 hours. Reactions were stopped with the addition of 7.5 μL of a 1% trifluoroacetic acid solution containing 1 pmol/μL internal standard (mass labeled SEQ ID NO: 39). Aliquots (0.5 μL out of a total of […]) from each reaction were analyzed by either MALDI-TOF MS (Ultraflex, Bruker) or LC-MS/MS (Ultimate HPLC, Dionex, connected to a Micromass/Waters Q-TOF instrument) using a nanoESI interface. Reaction products were analyzed by LC-MS/MS without further treatment. […]
# (§2) Mouse WEHI-231 B lymphoma cell line was cultured as described in Cutillas et al., Mol Cell Proteomics 4:1038-51 (2005), incorporated herein in its entirety by reference. […] After centrifugation at 20,000×g, cell lysates were ready to use as enzyme sources. The enzyme activity of Akt in varying amounts of cell lysate (0.033, 0.067, 0.33, and 0.67 μg) was measured in the protocol outlined in example 2. […]
# [6] = system: T4, S6 Kinase/Rsk peptide substrate (SEQ ID NO: 5)
# T4 sequence: RRRLSSLRA
# Akt [7] = assay: Akt activity in B cell lysates in the presence of PI3K activators with or without inhibitor; type: cell-based, mouse; conditions: PI3K activators (sodium pervanadate and anti-IgM) present; with vs without inhibitor; FIG. 3C
# Method: as §1, §2
# Akt [8] = assay: MS quantification of activity of Akt immunoprecipitates from B lymphoma cells; type: cell-based, mouse; conditions: addition of PI3K inhibitor, FIG. 3B
# Method: as §1, §2
compound,measurement,setting,value
recombinant Akt/PKB,enzymatic activity (phosphorylated peptide product quantified by MALDI-TOF MS or LC-MS/MS),[1],capable of detecting enzymatic activity down to the zeptommole range
recombinant Erk,"extracted mass chromatogram of enzymatic product (LC-MS), time points 0, 10, 30, 60 min",[2],c) corresponds to phosphorylation of SEQ ID NO: 10 by Erk
recombinant PKC,"extracted mass chromatogram of enzymatic product (LC-MS), time points 0, 10, 30, 60 min",[3],a) corresponds to phosphorylation of SEQ ID NO: 12 by PKC
same,"extracted mass chromatogram of enzymatic product (LC-MS), time points 0, 10, 30, 60 min",[4],d) corresponds to phosphorylation of SEQ ID NO: 23 by PKC
Cc1ccccc1-n1c(Cn2cnc3c(N)ncnc32)nc2cccc(C)c2c1=O [IC87114],Activity of the Akt enzyme in cell lysates,Akt [5],decreased enzyme activity
recombinant S6 p70 kinase,"extracted mass chromatogram of enzymatic product (LC-MS), time points 0, 10, 30, 60 min",[6],b) corresponds to phosphylation of SEQ ID NO: 5 by S6 p70 kinase
COC[C@H]1OC(=O)c2coc3c2[C@@]1(C)C1=C(C3=O)[C@@H]2CCC(=O)[C@@]2(C)C[C@H]1OC(C)=O [WM],Activity of Akt in B cell lysates,Akt [7],sensitive to the presence or absence of the inhibitor
same,Activity of the Akt enzyme in cell lysates,Akt [5],decreased enzyme activity
same,Activity of Akt immunoprecipitates,Akt [8],similarly affected
